One may read the Kd as a measure of binding affinity in units of concentration. Lower therefore signals a tighter complex.

Data on 10 molecules can be found in US11827699 (dated 2023).

Test in all cases: SPR
One test deals with T1, human FcγRIIa R131 (human, UniProt P12318).
T1 chain: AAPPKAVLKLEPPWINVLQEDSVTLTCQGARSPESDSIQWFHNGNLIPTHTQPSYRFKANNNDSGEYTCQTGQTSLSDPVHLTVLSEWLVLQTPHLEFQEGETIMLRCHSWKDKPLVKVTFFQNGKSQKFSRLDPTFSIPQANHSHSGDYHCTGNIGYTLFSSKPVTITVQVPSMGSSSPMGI

Another test concerns the target T2, human FcγRIIb (human, UniProt P31994).
T2 chain: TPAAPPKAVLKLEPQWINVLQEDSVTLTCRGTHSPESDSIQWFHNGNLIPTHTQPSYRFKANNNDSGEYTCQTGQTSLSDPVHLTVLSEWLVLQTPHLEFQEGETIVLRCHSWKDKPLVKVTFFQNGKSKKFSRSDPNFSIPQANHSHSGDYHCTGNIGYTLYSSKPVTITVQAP

The next test has as its target human FcγRIIIa V158 (human, UniProt P08637).
In a further test the target is T3, human FcγRIIa H131 (human, UniProt P12318).
T3 chain: T1 chain with R132H

The target in the next test is T4, human FcγRIa (human, UniProt P12314).
T4 chain: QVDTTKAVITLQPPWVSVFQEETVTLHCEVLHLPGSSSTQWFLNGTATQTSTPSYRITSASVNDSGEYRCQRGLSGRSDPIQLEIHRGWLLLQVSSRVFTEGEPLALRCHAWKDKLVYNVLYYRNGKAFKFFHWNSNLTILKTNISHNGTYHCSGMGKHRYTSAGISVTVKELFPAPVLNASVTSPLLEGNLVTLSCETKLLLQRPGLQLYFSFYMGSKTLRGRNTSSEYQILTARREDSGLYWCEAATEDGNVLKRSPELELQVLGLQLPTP

Numbering of substitutions follows the chain as printed.

Sequence of human FcγRIIIa V158 (P08637 17-208 F176V): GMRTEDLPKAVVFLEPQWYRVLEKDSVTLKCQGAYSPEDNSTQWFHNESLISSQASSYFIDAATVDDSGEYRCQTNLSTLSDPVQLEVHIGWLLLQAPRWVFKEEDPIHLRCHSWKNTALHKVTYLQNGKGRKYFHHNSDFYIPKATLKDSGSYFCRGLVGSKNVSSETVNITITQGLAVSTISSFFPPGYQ

B1: IL6R-BP489 (antibody)
chain 1: QVQLQESGPGLVKPSETLSLTCAVSGHSISHDHAWSWVRQPPGEGLEWIGFISYSGITNYNPSLQGRVTISRDNSKNTLYLQMNSLRAEDTAVYYCARSLARTTAMDYWGEGTLVTVSSASTKGPSVFPLAPSSKSTSGGTAALGCLVKDYFPEPVTVSWNSGALTSGVHTFPAVLQSSGLYSLSSVVTVPSSSLGTQTYICNVNHKPSNTKVDKKVEPKSCDKTHTCPPCPAPDLLGDDSVFLFPPKPKDTLMISRTPEVTCVVIDVAEEDGEVKFNWYVDGVEVHNAKTKPREEQDNSTYRVVSVLTVLHQDWLNGKEYKCKVSNKALPRPIEKTISKAKGQPREPQVYTLPPSRDELTKNQVSLTCLVKGFYPSDIAVEWESNGQPENNYKTTPMVLDSDGSFFLYSKLTVDKSRWQQGNVFSCSVMHEALHNHYTQESLSLSP
chain 2: not shown
With B1, the Kd amounted to 43 nM in the test with human FcγRIIa R131; 1 nM with human FcγRIIb; 12000 nM with human FcγRIIIa V158; 870 nM in the test with human FcγRIIa H131; 1.3 nM with human FcγRIa.

B2: IL6R-BP505 (antibody)
chain 1: B1 chain 1 with E274D, D298Y, R332A, M398P
chain 2: not shown
B2: the Kd was 430 nM with human FcγRIIa R131; 21 nM in the test with human FcγRIIb; 38000 nM with human FcγRIIIa V158; 11000 nM with human FcγRIIa H131; 1.1 nM in the test with human FcγRIa.

B3: IL6R-BP499 (antibody)
chain 1: B1 chain 1 with M398L
chain 2: not shown
As to B3, the Kd in the test with human FcγRIIa R131 amounted to 49 nM; in the test with human FcγRIIb it was 1.5 nM; in the test with human FcγRIIIa V158 it was 12000 nM; with human FcγRIIa H131 it was 1000 nM; with human FcγRIa, 1.2 nM.

B4: IL6R-BP511 (antibody)
chain 1: B1 chain 1 with D235E, E274P, M398P
chain 2: not shown
Consider B4, for which the Kd was determined as 180 nM in the test with human FcγRIIa R131; 3.5 nM with human FcγRIIb; 71000 nM in the test with human FcγRIIIa V158; 4300 nM in the test with human FcγRIIa H131; 6 nM with human FcγRIa.

B5: IL6R-BP479 (antibody)
chain 1: B1 chain 1 with V268L, D298Y, R332A, M398P
chain 2: not shown
In the case of B5, the Kd with human FcγRIIa R131 was determined as 900 nM; in the test with human FcγRIIb, 56 nM; with human FcγRIIIa V158 it was 40000 nM; with human FcγRIIa H131, 15000 nM; with human FcγRIa, 5.3 nM.

B6: IL6R-BP483 (antibody)
chain 1: B1 chain 1 with I266V, V268L, D298Y, R332A, M398P
chain 2: not shown
As to B6, the Kd with human FcγRIIa R131 turned out to be 1300 nM; with human FcγRIIb, 78 nM; with human FcγRIIIa V158, 25000 nM; with human FcγRIIa H131 it was 18000 nM; with human FcγRIa it was 1.3 nM.

B7: IL6R-BP481 (antibody)
chain 1: B1 chain 1 with D298Y, R332A, M398P
chain 2: not shown
For B7, the dissociation constant (Kd) with human FcγRIIa R131 was found to be 400 nM; in the test with human FcγRIIb, 19 nM; with human FcγRIIIa V158 it was 24000 nM; with human FcγRIIa H131, 6800 nM; with human FcγRIa, 1 nM.

B8: IL6R-BP504 (antibody)
chain 1: B1 chain 1 with E274P, D298Y, R332A, M398P
chain 2: not shown
As for B8, the Kd with human FcγRIIa R131 was found to be 450 nM; with human FcγRIIb it was 24 nM; with human FcγRIIIa V158, 34000 nM; with human FcγRIIa H131 it was 16000 nM; with human FcγRIa, 1.4 nM.

B9: IL6R-BP491 (antibody)
chain 1: B1 chain 1 with D235E, M398P
chain 2: not shown
On to B9, for which the Kd with human FcγRIIa R131 was 120 nM; in the test with human FcγRIIb, 3 nM; with human FcγRIIIa V158 it was 21000 nM; with human FcγRIIa H131, 2200 nM; with human FcγRIa, 5.3 nM.

B10: IL6R-BP262 (antibody)
chain 1: B1 chain 1 with D235E, I266V, A269S, D298Y, R332A, M398P
chain 2: not shown
Consider B10, for which the Kd with human FcγRIIa R131 amounted to 2000 nM; in the test with human FcγRIIb it was 120 nM; with human FcγRIIIa V158, 56000 nM; with human FcγRIIa H131 it was 45000 nM; with human FcγRIa it was 10 nM.
